In article PMC8990011, “Bcl-xL acts as an inhibitor of IP3R channels, thereby antagonizing Ca^2+-driven apoptosis” (Cell Death and Differentiation, 2021):

B1: GST-mIP3R1-LBD (domain or fragment)
chain: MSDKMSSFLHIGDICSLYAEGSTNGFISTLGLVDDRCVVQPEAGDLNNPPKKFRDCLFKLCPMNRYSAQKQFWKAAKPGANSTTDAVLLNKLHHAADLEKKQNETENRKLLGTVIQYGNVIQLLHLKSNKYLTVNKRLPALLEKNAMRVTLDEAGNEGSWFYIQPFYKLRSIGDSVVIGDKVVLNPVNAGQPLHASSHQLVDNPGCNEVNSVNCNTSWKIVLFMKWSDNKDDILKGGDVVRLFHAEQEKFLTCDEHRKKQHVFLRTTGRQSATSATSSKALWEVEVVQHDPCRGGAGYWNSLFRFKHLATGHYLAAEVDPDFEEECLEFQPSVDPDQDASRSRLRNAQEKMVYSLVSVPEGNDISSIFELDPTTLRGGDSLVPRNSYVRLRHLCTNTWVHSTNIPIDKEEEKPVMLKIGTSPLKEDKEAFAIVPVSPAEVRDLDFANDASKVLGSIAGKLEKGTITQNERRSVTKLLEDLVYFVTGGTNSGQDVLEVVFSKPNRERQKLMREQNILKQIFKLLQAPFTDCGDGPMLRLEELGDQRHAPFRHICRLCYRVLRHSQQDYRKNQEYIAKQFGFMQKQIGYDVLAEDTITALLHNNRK
B2: GST-mIP3R1-Fragment 3 (domain or fragment)
chain: SIHGVGELMTQVVLRGGGFLPMTPMAAAPEGNVKQAEPEKEDIMVMDTKLKIIEILQFILNVRLDYRISCLLCIFKREFDESNSQSSETSSGNSSQEGPSNVPGALDFEHIEEQAEGIFGGSEENTPLDLDDHGGRTFLRVLLHLTMHDYPPLVSGALQLLFRHFSQRQEVLQAFKQVQLLVTSQDVDNYKQIKQDLDQLRSIVEKSELWVYKGQGPDEPMDGASGENEHKKTEEGTSKPLKHESTSSYNYRVVKEILIRLSKLCVQESASVRKSRKQQQRLLRNMGAHAVVLELLQIPYEKAEDTKMQEIMRLAHEFLQNFCAGNQQNQALLHKHINLFLNPGILEAVTMQHIFMNNFQLCSEINERVVQHFVHCIETHGRNVQYIKFLQTIVKAEGKFIKKCQDMVMAELVNSGEDVLVFYNDRASFQTLIQMMRSERDRMDENSPLMYHIHLVELLAVCTEGKNVYTEIKCNSLLPLDDIVRVVTHEDCIPEVKIAYINFLNHCYVDTEVEMKEIYTSNHMWKLFENFLVDICRACNNTSDRKHADSILEKYVTEIVMSIVTTFFSSPFSDQSTTLQTRQPVFVQLLQGVFRVYHCNWLMPSQKASVESCIRVLSDVAKSRAIAIPVDLDSQVNNLFLKSHNIVQKTALNWRLSAR

Tests used:
6xHis-Bcl-xL = target: T1, 6xHis-Bcl-xL (human, UniProt Q07817-1 1-233, RED-tris-NTA dye on the His tag (Monolith His-Tag Labeling Kit) in MST); assay: MST; 6xHis-Bcl-xL proteins labelled with RED-tris-NTA kept constant at 50 nM; GST proteins titrated down from 15 µM to 5 nM; Monolith NT, 5% excitation power, medium MST power; triplicates; settings: both partners purified
T1 construct: full-length Bcl-xL cloned in pET45b in the 6xHis-encoding reading frame; also called wild-type 6xHis-Bcl-xL; full-length 6xHis-Bcl-xL; source: E. coli BL21, purified (NiNTA)
T1 sequence (Q07817 whole entry): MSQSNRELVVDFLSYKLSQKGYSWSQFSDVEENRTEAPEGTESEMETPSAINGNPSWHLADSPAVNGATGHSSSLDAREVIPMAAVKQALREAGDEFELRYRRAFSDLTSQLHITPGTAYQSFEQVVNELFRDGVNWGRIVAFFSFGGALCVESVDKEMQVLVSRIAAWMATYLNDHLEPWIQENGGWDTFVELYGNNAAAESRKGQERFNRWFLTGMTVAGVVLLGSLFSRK

6xHis-Bcl-xL^K87D = target: T2, 6xHis-Bcl-xL^K87D (human, UniProt Q07817-1 1-233, K87D, RED-tris-NTA dye on the His tag (Monolith His-Tag Labeling Kit) in MST); assay: as above; settings: both partners purified
T2 construct: full-length Bcl-xL with K87D, made from pET45b-Bcl-xL by site-directed mutagenesis; also called full-length Bcl-xL^K87D; purified Bcl-xL^K87D; source: E. coli BL21, purified (NiNTA)
T2 sequence (Q07817 whole entry K87D): as the sequence (Q07817 whole entry) above, with K87D counted along it

Binder | Kd (6xHis-Bcl-xL) | Kd (6xHis-Bcl-xL^K87D)
B1 | ~701 nM | ~1170 nM
B2 | ~495 nM | ~990 nM
